Laboratory results taken from US20180072807A1 (UNIVERSITAT STUTTGART, published 2018).
Values belong to the binder of their own block, whether it stands above or below them.

How the values were obtained:
mouse serum albumin = target: T1, mouse serum albumin (mouse, UniProt P07724 25-608); experiment: size exclusion chromatography after incubation with albumin
T1 construct: also called MSA

human serum albumin = target: T2, human serum albumin (human, UniProt P02768 25-609); experiment: as above
T2 construct: also called HSA

[1] = target: T3, proapoptotic TRAIL receptor DR4 (TRAIL R1) (UniProt O00220 24-468, limits assumed); experiment: flow cytometry on EGFR low/negative HepG2 cells; detection with anti-TRAIL mAb
T3 construct: whole, on cells; Endogenous receptor on cell lines

[2] = target: EGF receptor (EGFR, erbB1) (human, UniProt P00533 25-1210); experiment: cell-based or functional assay

- binding result (mouse serum albumin): binds
- binding result (human serum albumin): binds
B1: dimeric EGFR-specific TRAIL fusion protein of SEQ ID NO: 126 with an albumin binding domain (ABD) at the C-terminus (other)
chain: LEASDYKDDDDKGAEVQLVESGGGLVQPGGSLRLSCAASGFSLTNYGVHWVRQAPGKGLEWLGVIWSGGNTDYNTPFTSRFTISRDNSKNTLYLQMNSLRAEDTAVYYCARALTYYDYEFAYWGQGTTVTVSSGGGGSDIQLTQSPSFLSASVGDRVTITCRASQSIGTNIHWYQQKPGKAPKLLIKYASESISGVPSRFSGSGSGTEFTLTISSLQPEDFATYYCQQNNNWPTTFGAGTKLEIKRAAAGNGTSNGTSEFTRGTSEETISTVQEKQQNISPLVRERGPQRVAAHITGTRGRSNTLSSPNSKNEKALGRKINSWESSRSGHSFLSNLHLRNGELVIHEKGFYYIYSQTYFRFQEEIKENTKNDKQMVQYIYKYTSYPDPILLMKSARNSCWSKDAEYGLYSIYQGGIFELKENDRIFVSVTNEHLIDMDHEASFFGAFLVGGGGSGGGSTSEETISTVQEKQQNISPLVRERGPQRVAAHITGTRGRSNTLSSPNSKNEKALGRKINSWESSRSGHSFLSNLHLRNGELVIHEKGFYYIYSQTYFRFQEEIKENTKNDKQMVQYIYKYTSYPDPILLMKSARNSCWSKDAEYGLYSIYQGGIFELKENDRIFVSVTNEHLIDMDHEASFFGAFLVGGGGSGGGSTSEETISTVQEKQQNISPLVRERGPQRVAAHITGTRGRSNTLSSPNSKNEKALGRKINSWESSRSGHSFLSNLHLRNGELVIHEKGFYYIYSQTYFRFQEEIKENTKNDKQMVQYIYKYTSYPDPILLMKSARNSCWSKDAEYGLYSIYQGGIFELKENDRIFVSVTNEHLIDMDHEASFFGAFLVGGGSGGQHDEAVDANSLAEAKVLANRELDKYGVSDYYKNLINNAKTVEGVKALIDEILAALP

- binding result [1]: binds
B2: EGFR-specific TRAIL fusion protein according to SEQ ID NO: 102 (FLAG tag, huC225 VH, GGGGS linker L, VL, linker X, scTRAIL) (other)
chain: LEASDYKDDDDKGAEVQLVESGGGLVQPGGSLRLSCAASGFSLTNYGVHWVRQAPGKGLEWLGVIWSGGNTDYNTPFTSRFTISRDNSKNTLYLQMNSLRAEDTAVYYCARALTYYDYEFAYWGQGTTVTVSSGGGGSDIQLTQSPSFLSASVGDRVTITCRASQSIGTNIHWYQQKPGKAPKLLIKYASESISGVPSRFSGSGSGTEFTLTISSLQPEDFATYYCQQNNNWPTTFGAGTKLEIKRAAAEFTRGTSEETISTVQEKQQNISPLVRERGPQRVAAHITGTRGRSNTLSSPNSKNEKALGRKINSWESSRSGHSFLSNLHLRNGELVIHEKGFYYIYSQTYFRFQEEIKENTKNDKQMVQYIYKYTSYPDPILLMKSARNSCWSKDAEYGLYSIYQGGIFELKENDRIFVSVTNEHLIDMDHEASFFGAFLVGGGGSGGGSTSEETISTVQEKQQNISPLVRERGPQRVAAHITGTRGRSNTLSSPNSKNEKALGRKINSWESSRSGHSFLSNLHLRNGELVIHEKGFYYIYSQTYFRFQEEIKENTKNDKQMVQYIYKYTSYPDPILLMKSARNSCWSKDAEYGLYSIYQGGIFELKENDRIFVSVTNEHLIDMDHEASFFGAFLVGGGGSGGGSTSEETISTVQEKQQNISPLVRERGPQRVAAHITGTRGRSNTLSSPNSKNEKALGRKINSWESSRSGHSFLSNLHLRNGELVIHEKGFYYIYSQTYFRFQEEIKENTKNDKQMVQYIYKYTSYPDPILLMKSARNSCWSKDAEYGLYSIYQGGIFELKENDRIFVSVTNEHLIDMDHEASFFGAFLVG
notes: Made in HEK293 cells; The FLAG tag was kept for purification; also called divalent TRAIL fusion protein; dimeric TRAIL fusion protein

- binding result (mouse serum albumin): binds
- binding result (human serum albumin): binds
B3: dimeric EGFR-specific TRAIL fusion protein of SEQ ID NO: 125 with an albumin binding domain (ABD) between component B and components A (other)
chain: LEASDYKDDDDKGAEVQLVESGGGLVQPGGSLRLSCAASGFSLTNYGVHWVRQAPGKGLEWLGVIWSGGNTDYNTPFTSRFTISRDNSKNTLYLQMNSLRAEDTAVYYCARALTYYDYEFAYWGQGTTVTVSSGGGGSDIQLTQSPSFLSASVGDRVTITCRASQSIGTNIHWYQQKPGKAPKLLIKYASESISGVPSRFSGSGSGTEFTLTISSLQPEDFATYYCQQNNNWPTTFGAGTKLEIKRGGSQHDEAVDANSLAEAKVLANRELDKYGVSDYYKNLINNAKTVEGVKALIDEILAALPAAAGNGTSNGTSEFTRGTSEETISTVQEKQQNISPLVRERGPQRVAAHITGTRGRSNTLSSPNSKNEKALGRKINSWESSRSGHSFLSNLHLRNGELVIHEKGFYYIYSQTYFRFQEEIKENTKNDKQMVQYIYKYTSYPDPILLMKSARNSCWSKDAEYGLYSIYQGGIFELKENDRIFVSVTNEHLIDMDHEASFFGAFLVGGGGSGGGSTSEETISTVQEKQQNISPLVRERGPQRVAAHITGTRGRSNTLSSPNSKNEKALGRKINSWESSRSGHSFLSNLHLRNGELVIHEKGFYYIYSQTYFRFQEEIKENTKNDKQMVQYIYKYTSYPDPILLMKSARNSCWSKDAEYGLYSIYQGGIFELKENDRIFVSVTNEHLIDMDHEASFFGAFLVGGGGSGGGSTSEETISTVQEKQQNISPLVRERGPQRVAAHITGTRGRSNTLSSPNSKNEKALGRKINSWESSRSGHSFLSNLHLRNGELVIHEKGFYYIYSQTYFRFQEEIKENTKNDKQMVQYIYKYTSYPDPILLMKSARNSCWSKDAEYGLYSIYQGGIFELKENDRIFVSVTNEHLIDMDHEASFFGAFLVG

- binding result [1]: binds
- apoptosis-inducing activity on EGFR-positive Huh-7 cells compared to scTRAIL (SEQ ID NO: 104) [2]: 10 fold
B4: EGFR-specific TRAIL fusion protein of SEQ ID NO: 96 (FLAG tag, huC225 VH, (GGGGS)3 linker L, VL, linker X, scTRAIL) (other)
chain: LEASDYKDDDDKGAEVQLVESGGGLVQPGGSLRLSCAASGFSLTNYGVHWVRQAPGKGLEWLGVIWSGGNTDYNTPFTSRFTISRDNSKNTLYLQMNSLRAEDTAVYYCARALTYYDYEFAYWGQGTTVTVSSGGGGSGGGGSGGGGSDIQLTQSPSFLSASVGDRVTITCRASQSIGTNIHWYQQKPGKAPKLLIKYASESISGVPSRFSGSGSGTEFTLTISSLQPEDFATYYCQQNNNWPTTFGAGTKLEIKRAAAEFTRGTSEETISTVQEKQQNISPLVRERGPQRVAAHITGTRGRSNTLSSPNSKNEKALGRKINSWESSRSGHSFLSNLHLRNGELVIHEKGFYYIYSQTYFRFQEEIKENTKNDKQMVQYIYKYTSYPDPILLMKSARNSCWSKDAEYGLYSIYQGGIFELKENDRIFVSVTNEHLIDMDHEASFFGAFLVGGGGSGGGSTSEETISTVQEKQQNISPLVRERGPQRVAAHITGTRGRSNTLSSPNSKNEKALGRKINSWESSRSGHSFLSNLHLRNGELVIHEKGFYYIYSQTYFRFQEEIKENTKNDKQMVQYIYKYTSYPDPILLMKSARNSCWSKDAEYGLYSIYQGGIFELKENDRIFVSVTNEHLIDMDHEASFFGAFLVGGGGSGGGSTSEETISTVQEKQQNISPLVRERGPQRVAAHITGTRGRSNTLSSPNSKNEKALGRKINSWESSRSGHSFLSNLHLRNGELVIHEKGFYYIYSQTYFRFQEEIKENTKNDKQMVQYIYKYTSYPDPILLMKSARNSCWSKDAEYGLYSIYQGGIFELKENDRIFVSVTNEHLIDMDHEASFFGAFLVG
notes: also called VH-VL-scTRAIL
